Patent US20240092897A1 (SHANGHAI JMT BIO TECHNOLOGY, published 2024)

T1: Human Siglec-15, His Tag (human Siglec-15 full-length extracellular domain linked with His tag) (human, UniProt Q6ZMC9 20-263)
T1 construct: Bought from ACROBiosystems; also called Siglec-15 protein; SG5-H52H3
T1 sequence: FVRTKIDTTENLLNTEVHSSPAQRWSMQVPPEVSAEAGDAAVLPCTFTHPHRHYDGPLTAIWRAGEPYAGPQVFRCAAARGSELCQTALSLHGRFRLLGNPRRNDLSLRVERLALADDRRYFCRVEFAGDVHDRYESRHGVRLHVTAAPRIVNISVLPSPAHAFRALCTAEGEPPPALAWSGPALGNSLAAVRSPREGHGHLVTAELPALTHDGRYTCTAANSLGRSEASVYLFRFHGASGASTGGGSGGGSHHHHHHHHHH

T2: Human Siglec-15 overexpressed on HEK293T cells (HEK293T-hu-S15) (human, UniProt Q6ZMC9 20-328)
T2 construct: whole, on cells; also called HEK293T-hu-S15 cell line
T2 sequence (looked up): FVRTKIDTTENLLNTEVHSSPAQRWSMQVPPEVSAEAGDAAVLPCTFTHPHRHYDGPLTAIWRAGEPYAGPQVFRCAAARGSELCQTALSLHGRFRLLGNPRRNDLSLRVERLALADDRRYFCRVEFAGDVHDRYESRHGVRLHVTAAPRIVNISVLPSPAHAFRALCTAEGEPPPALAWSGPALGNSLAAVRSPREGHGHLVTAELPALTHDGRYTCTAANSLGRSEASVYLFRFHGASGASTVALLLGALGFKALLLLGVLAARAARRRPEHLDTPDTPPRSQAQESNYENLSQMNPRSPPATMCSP

T3: Cynomolgus Monkey Siglec-15 full-length extracellular domain linked with His tag (Cynomolgus Monkey)
T3 construct: Bought from ACROBiosystems; also called SG5-052H6
T3 chain: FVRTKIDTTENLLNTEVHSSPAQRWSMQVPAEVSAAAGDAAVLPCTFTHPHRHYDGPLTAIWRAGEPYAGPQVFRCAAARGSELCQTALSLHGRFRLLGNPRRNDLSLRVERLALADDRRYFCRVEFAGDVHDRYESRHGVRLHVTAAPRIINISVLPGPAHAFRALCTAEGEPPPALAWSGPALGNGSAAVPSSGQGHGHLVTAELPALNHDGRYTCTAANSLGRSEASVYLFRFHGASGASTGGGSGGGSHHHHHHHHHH

T4: Mouse Siglec-15 full-length extracellular domain linked with His tag (mouse)
T4 construct: Bought from ACROBiosystems; also called SG5-M52H7
T4 chain: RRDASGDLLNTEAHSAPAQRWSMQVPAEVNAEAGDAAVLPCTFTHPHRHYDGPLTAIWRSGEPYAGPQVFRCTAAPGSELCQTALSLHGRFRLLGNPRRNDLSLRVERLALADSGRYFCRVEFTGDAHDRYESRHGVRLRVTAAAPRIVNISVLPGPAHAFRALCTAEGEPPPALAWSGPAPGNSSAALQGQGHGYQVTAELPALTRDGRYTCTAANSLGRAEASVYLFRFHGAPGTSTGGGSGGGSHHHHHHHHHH

B1: 255C12B10 chimeric antibody (antibody, V domains shown)
VH: EVQLQQSGPELVKPGASVKMSCKASGYTFTGYNMNWVKQSHGKSLEWIGYINPNNGGTRYNQKFKGKATLTINKSSSTAYMELRSLTSEDSAVYYCARDYGIDYWGQGTTLTVSS
VL: EIQMTQSPSSMSASLGDRITITCQATQDIVKNLNWYQQKPGKPPSFLIYYATELAEGVPSRFSGSGSGSDYSLTISNLESEDFADYYCLQFYEFPYTFGGGTKLEIK
notes: Mouse variable regions combined with human IgG1 (N297A) constant regions
B2: 174C11C9 chimeric antibody (antibody, human IgG1, V domains shown)
VH: EVQLQQSGPVLVKPGASVKMSCEASGYIFTDYYMNWVKQSPGKSLEWIGVFNPYSGGISYNQKFKGKATLTVDTSSSTAYMELNSLTSEDSAVYYCARDYYYLSSHGFYALDYWGQGTSVTVSS
VL: DIVLTQSPASLAVSLGQRATISCRASESVDSYGNSFIHWYQQRPGRPPKLLMYRASNLESGIPARFSGSGSRTDFTLTIDPVEADDVATYYCQQSNEDPLTFGAGTKLELK
notes: also called 174C11C9-mHL
B3: 124B11F6 chimeric antibody (antibody, human IgG1, V domains shown)
VH: EVQLQQSGAELVRPGASVKLSCTASVFNIKDYYMHWVKQRTEQGLEWIGRIDPEDDKTKYAPKFQGKATITADTSSNTAYLHLSTLTSEDTAVYYCVRGWLGYIMDFWGQGTSVTVSS
VL: QLVLTQSSSASFSLGASAKLTCTLSSQHSTYTIDWYQQQPLKPPKYVMELKEDGSHSTGDGIPDRFSGSSSGADRYLGISNIQPEDEAVYICGVGATIKEQFVYVFGGGTKVTVL
notes: also called 124B11F6-mHL
B4: 75E1F2 chimeric antibody (antibody, V domains shown)
VH: EVQLVESGGGSVKPGGSLKLSCAASGFTFSDYGMHWVRQAPEKGLEWITYISSGSSIIDYSDTVKGRFTISRDNAKDTLFLQMTSLRSEDTAIYYCVRREDHYAMDYWGQGTSVTVSS
VL: DIVMTQSHKFLSTSVGDRVSITCKASQDVYTAVAWFQQKPGQSPKLLFYSASYRFTGVPDRFNGSGSGTDFTLTITSMQAEDLAVYYCQQHYSTPWTFGGGTKLEIK
notes: as for B1

molecular target: T1, Human Siglec-15, His Tag (human …); assay: Octet BLI epitope binning, Siglec-15 His on HIS1K sensor; competitor 75E1F2
Description: (§1) Epitope binning assays were performed using the Octet RED96e (ForteBio) System for the antibodies tested. Human Siglec-15, His Tag (Cat. No. SG5-H52H3) (5 μg/mL) was captured by the HIS1K biosensor and bound to primary antibody (100 nM) for 180 s. Then, the Human Siglec-15, His Tag (antigen)-primary antibody was bound to secondary antibody (100 nM) on the biosensors for 90 s. Data analysis was performed using Octet RED96e (ForteBio) analysis software.

cross-competition score | Binder
11.4% | B1
4.2% | B2
22.7% | B3

molecular target: T1, Human Siglec-15, His Tag (human …); assay: SPR Biacore 8K, antibody captured by anti-human Fc, Siglec-15 His as analyte
Description: Affinity analysis was performed using Biacore8K, and a CM5 chip immobilized with anti-human Fc antibody was used to capture the antibodies tested. The stock solutions of the antibodies to be tested were diluted to 5 μg/mL, and injected sequentially into the experimental channels at a flow rate of 10 μL/min at about 500 RU. The analyte was Human Siglec-15, His Tag (Cat. #SG5-H52H3), the diluted human Siglec-15 protein was injected sequentially into the experimental channels and the control channel at a flow rate of 30 μL/min and allowing for a binding time of 150 s and a dissociation time of 700 s. The KD value of each antibody was calculated using Biacore 8K analysis software.

Kd | koff | kon | Binder
0.536 nM | 0.000158 s⁻¹ | 296000 M⁻¹ s⁻¹ | B1
0.93 nM | 0.000782 s⁻¹ | 841000 M⁻¹ s⁻¹ | B4
0.305 nM | 0.00037 s⁻¹ | 1.21e+06 M⁻¹ s⁻¹ | B2
0.00143 nM | 1.46e-07 s⁻¹ | 102000 M⁻¹ s⁻¹ | B3

molecular target: T1, Human Siglec-15, His Tag (human …); assay: Octet BLI epitope binning, Siglec-15 His on HIS1K sensor; competitor 124B11F6
Description: as §1

cross-competition score | Binder
18.9% | B1
25.6% | B4
73.4% | B2

molecular target: T1, Human Siglec-15, His Tag (human …); assay: Octet BLI epitope binning, Siglec-15 His on HIS1K sensor; competitor 255C12B10
Description: as §1

cross-competition score | Binder
69.2% | B4
52.4% | B2
44.9% | B3

molecular target: T2, Human Siglec-15 overexpressed on …; assay: flow cytometry on HEK293T-hu-S15 cells, detection with anti-human IgG (Fc specific)-FITC, average fluorescence intensity
Description: HEK293T cell line overexpressing Siglec-15 (HEK293T-hu-S15) was purchased from KYinno Biotechnology Co., Ltd (Beijing, China) under Catalog #KC-1314. Purified anti-Siglec-15 chimeric antibodies were diluted at a gradient of 100 nM and incubated with HEK293T-hu-S15 cells at 4° C. for 30 min. Flow cytometry was performed after addition of anti-human IgG (Fc specific)-FITC (cat. #F9512) and incubation for 30 min.

EC50 | Binder
3.77 nM | B1
1.88 nM | B4
1.59 nM | B2
9.44 nM | B3

molecular target: T1, Human Siglec-15, His Tag (human …); assay: Octet BLI epitope binning, Siglec-15 His on HIS1K sensor; competitor 21F6C6
Description: as §1

cross-competition score | Binder
20.4% | B1
23.3% | B4
7.68% | B2
108% | B3

molecular target: T1, Human Siglec-15, His Tag (human …); assay: SPR Biacore, antibody captured by anti-human Fc on CM5, Siglec-15 protein as analyte

Kd | koff | kon | Binder
0.175 nM | 0.000305 s⁻¹ | 1.74e+06 M⁻¹ s⁻¹ | B2
0.0834 nM | 0.000114 s⁻¹ | 1.37e+06 M⁻¹ s⁻¹ | B3

molecular target: T1, Human Siglec-15, His Tag (human …); assay: Octet BLI epitope binning, Siglec-15 His on HIS1K sensor; competitor 174C11C9
Description: as §1

cross-competition score | Binder
18.3% | B1
23% | B4
79.5% | B3

Molecular target: T3, Cynomolgus Monkey Siglec-15 full-length …
Assay: ELISA, coated antigen
Description: (§2) The variable regions from the antibodies produced by the hybridomas were combined with human IgG1 (N297A) constant regions to generate chimeric antibodies, named as 21F6C6, 75E1F2, 124B11F6, 174C11C9, and 255C12B10, respectively. Binding activity assays were performed on the chimeric antibodies using Siglec-15 proteins from different species, in which human, mouse and Cynomolgus Monkey Siglec-15 proteins were purchased from ACROBiosystems (Beijing, China). Antigen was coated at 0.5 μg/ml, and antibodies were diluted starting from 1 μg/ml and incubated with antigen. Horseradish peroxidase-labeled Anti-Human IgG antibody was used as the secondary antibody and OD₄₅₀ values were read after adding the substrate.

EC50 | Binder
0.00546 µg/mL | B1
0.0122 µg/mL | B4
0.00748 µg/mL | B2
0.016 µg/mL | B3

Molecular target: T4, Mouse Siglec-15 full-length …
Assay: ELISA, coated antigen
Description: as §2

EC50 | Binder
0.0228 µg/mL | B1
0.00985 µg/mL | B2
0.0212 µg/mL | B3

molecular target: T1, Human Siglec-15, His Tag (human …); assay: ELISA, coated antigen
Description: as §2

EC50 | Binder
0.00562 µg/mL | B1
0.0186 µg/mL | B4
0.00522 µg/mL | B2
0.0216 µg/mL | B3
